For one assay, the target named is FcgRIIB (UniProt P31994). Kind of assay: FACS.
Another assay concerns the target FcgRIIIA (UniProt P08637). Kind of assay: FACS.

The text below walks through data of patent US20140377253A1.

Sequence of FcgRIIIA (P08637 17-254): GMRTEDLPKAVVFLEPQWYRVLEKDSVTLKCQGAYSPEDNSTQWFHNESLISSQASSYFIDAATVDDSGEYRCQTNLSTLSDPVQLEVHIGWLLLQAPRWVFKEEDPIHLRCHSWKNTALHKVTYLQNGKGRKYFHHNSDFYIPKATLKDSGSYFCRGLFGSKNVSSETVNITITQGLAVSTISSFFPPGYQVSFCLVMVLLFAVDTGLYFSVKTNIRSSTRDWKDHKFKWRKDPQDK
Sequence of FcgRIIB (P31994 43-310): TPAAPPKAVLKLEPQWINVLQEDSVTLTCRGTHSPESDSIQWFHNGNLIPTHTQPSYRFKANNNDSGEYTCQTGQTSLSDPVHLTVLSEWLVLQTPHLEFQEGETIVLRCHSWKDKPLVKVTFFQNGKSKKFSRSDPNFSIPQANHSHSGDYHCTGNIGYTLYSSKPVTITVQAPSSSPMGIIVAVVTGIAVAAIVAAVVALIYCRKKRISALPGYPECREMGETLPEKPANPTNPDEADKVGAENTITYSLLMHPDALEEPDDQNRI

Consider L328F, for which the 50% effective concentration (EC50) (in general, the concentration giving half of the maximal effect) in the assay with FcgRIIB stood at 1.85 nM; with FcgRIIIA, 2.51 nM.
Consider N297A, for which the half-maximal effective concentration (EC50) stood at 2 nM in the assay with FcgRIIB and 3.67 nM with FcgRIIIA.
Consider S267E, for which the EC50 with FcgRIIB worked out at 0.64 nM; in the assay with FcgRIIIA, 1.24 nM.
The corresponding values for SELF are 0.32 nM and 2.31 nM.
